System: recombinant nucleosome

Sequence of NSD2 E1099K mutant protein, purified (Example 7) (chain, as listed by the source E1099K): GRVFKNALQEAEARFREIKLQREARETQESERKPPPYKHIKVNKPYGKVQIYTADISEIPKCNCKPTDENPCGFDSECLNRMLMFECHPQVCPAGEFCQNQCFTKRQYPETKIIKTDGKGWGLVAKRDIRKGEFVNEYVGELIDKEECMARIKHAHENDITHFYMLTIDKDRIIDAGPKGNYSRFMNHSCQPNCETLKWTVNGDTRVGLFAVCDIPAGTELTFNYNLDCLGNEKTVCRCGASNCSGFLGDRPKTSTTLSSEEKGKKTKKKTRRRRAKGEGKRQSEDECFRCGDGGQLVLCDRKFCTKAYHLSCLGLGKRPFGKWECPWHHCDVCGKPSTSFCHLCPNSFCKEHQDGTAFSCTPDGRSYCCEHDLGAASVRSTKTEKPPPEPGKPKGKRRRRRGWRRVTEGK
Sequence of NSD2 E1087Q mutation (Example 7) (chain, as listed by the source E1087Q): as the sequence (chain, as listed by the source E1099K) above, with E133Q, K145E counted along it

Row | Substance | SAH production by LC/MS/MS in an enzymatic reaction with SAM and nucleosome (FIG. 9)
1 | NSD2 E1087Q mutation (Example 7) | the NSD2 E1087Q mutation has less N-methyltransferase activity in each case
2 | NSD2 E1099K mutant protein, purified (Example 7) | the NSD2 E1099K protein gains extra activity on recombinant nucleosome compared to NSD2 WT

Reference: patent publication US20150354006
